According to US20220306734A1 (H LUNDBECK A S, published 2022):
Where a chain is given by its changes, count along the chain named.

B1: mGluR5 Ab1 (antibody, V domains shown)
VH: QQQLEESGGGLVKPGGTLTLTCKVSGIDFSSYYYMCWVRQAPGKGLEWIACIYAGDGGTYYASWAKGRFTSSKTSSTTVTLQMTSLTAADTATYFCARGSGVGSYGYSLWGPGTLVTVSS
VL: DIVMTQTPASVEAAVGGTVTIKCQASESIYSNLAWYQQKPGQPPKLLIYRASNLESGVPSRFKGSGSGTEFTLTISDLECADAATYYCQGYYASTTTNAFGGGTEVVVKR
notes: Rabbit variable regions on human heavy and light chain constant regions (chimeric)
B2: mGluR5 Ab3 (antibody, V domains shown)
VH: QSLEESGGRLVTPGTPLTLTCTVSGIDLSSYAVGWVRQAPGKGLEYIGIIYASGNTWYASWVKGRFTISKTSTTVDLKLASLTTEDTATYFCARGHGATYDYFNLWGPGTLVTVSS
VL: AYDMTQTPASVEVAVGGTVTIKCQASQSISSYLAWYQQKPGQPPKLLIYDASDLASGVPSRFKGSGSGTEYTLTISGVQCDDAATYYCQQGLATANVDNVFGGGTEVVVKR
notes: as for B1
B3: mGluR5 Ab13 (antibody, V domains shown)
VH: QSLEESGGDLVKPGASLTLTCTASGFSFSSSDYMCWVRQAPGKGLEWIGCIYTGDGTTYYASWAKGRFTISKTSSTTVTLQMTSLTAADTATYFCARGAGVGSYGYNLWGPGTLVTVSS
VL: DIVMTQTPASVEAAVGDTVTINCQASQNIYSNLAWYQQKPGQPPKLLIYRASTLASGVPSRFKGSGSGTQFTLTISDLECADAATYYCQSYYASSISNYFGGGTEVVVKR
notes: as for B1
B4: mGluR5 Ab14 (antibody, V domains shown)
VH: B1 VH with V24G, S30N, S31D, A54N, G58E, S63N, S71I, S108N, L109F, P112Q
VL: B1 VL with E55A, T96V
notes: as for B1
B5: mGluR5 Ab15 (antibody, V domains shown)
VH: QQLVESGGGLVKPGGTLTLTCKGSGIDFNDYYYICWVRQAPGKGLEWILCIYNGDGETYYANWAKGRFTISKTSSTTVTLQMTSLTGADTATYFCARGSGVGSYGYNFWGQGTLVTVSS
VL: B1 VL with S28N, E55A, T96V, A99G
notes: as for B1
B6: mGluR5 Ab16 (antibody, V domains shown)
VH: QSVEESGGRLVTPGTPLTLTCTASGFTISSYSMIWVRQAPGKGLESIGWINTGGSAYYANWAKGRFTISRTSTTVDLKMTSLTTEDTATYFCARDNNWSFNLWGQGTLVTVSS
VL: DIVMTQTPSSVSAAVGGTVTIKCQASQSIGTNLAWYQQKSGQPPKRLTYRASNLESGVPSRFKGSGSGTEFTLTISDLECADAATYYCQGGYYREGNSPTYPFGGGTEVVVKR
notes: as for B1
B7: mGluR5 Ab17 (antibody, V domains shown)
VH: B1 VH with Q2R, T17A, V24A, M35I, G58T, S63T, K66E, S108N, P112Q
VL: B1 VL with S28Y, N53T, Y92F, A93P, T95I, T96I
notes: as for B1
B8: mGluR5 Ab18 (antibody, V domains shown)
VH: QQQLEESGGGLVKPGGTLTLTCKASGLDFSNYHYMCWVRQAPGKRPEWIACIYNGDGTTYDASWAKGRFTSSKTSSTTVTLQMTSLTAADTATYFCARGSGVGSYGYNLWGQGTLVTVSS
VL: B1 VL with N53T, T95I, T96I
notes: as for B1
B9: mGluR5 Ab19 (antibody, V domains shown)
VH: QEQLEESGGDLVKPEGSLTLTCTASGFSFSNYYYMCWVRQAPGKGLEWIACIYTSSGSTYYANWVNGRFTISRSTSLNTVTLQVTSLTAADTATYFCAKSFGVGGYSFNLWGQGTLVTVSS
VL: AYDMTQTPASVEVAVGGTVTIKCQASQSISSYLSWYQQKPGQRPKLLIYRASTLASGVSSRFKGSGSGTEYSLSISGMECDDAATYYCQQGTTISDVDNVFGGGTEVVVKR
notes: as for B1
B10: mGluR5 Ab20 (antibody, V domains shown)
VH: QSVEESGGRLVTPGTPLTLTCTVSGFSLSDYGLNWVRQAPGKGLEWIGIIYASGSTYYANWAKGRFTISKTSTTVDLKMTSPTTEDTATYFCVRDSSATYDYFNLWGPGTLVTVSS
VL: YDMTQTPASVEVAVGGTVTIKCQASQSISSYLAWYQQKPGQPPRLLIYGASNLASGVPSRFKGSGSGTEYTLTISDLECADAATYYCQQALSPSNVDNAFGGGTEVVVKR
B11: mGluR5 Ab21 (antibody, V domains shown)
VH: QSLEESGGGLVQPGASLTLTCTASGFSFSSNYWICWVRQAPGKGLEWIGCIYTGTGITWYASWVNGRVTISSTSSTTVTLQVNSLTAADTATYFCARGSGDIAWAWDLWGQGTLVTVSS
VL: DVVMTQTPASVSAAVGGTVTIKCQASQSIYTNLAWYQQKPGQPPKLLIYKASTLASGVSSRFKGSGSGTEFTLTISGVQCADAATYYCQCTGYGSSGWTFGGGTEVVVKR
notes: as for B1
B12: mGluR5 Ab23 (antibody, V domains shown)
VH: B8 VH with L27I, S30N, N31D, H33Y, R45G, T58D, D61Y, S63N, S71I
VL: B1 VL with N53T, E55A, T96I, A99V
B13: mGluR5 Ab8 (antibody, V domains shown)
VH: QSVEESGGRLVTPGTPLTLTCSVSGIDLSSYAMSWVRQAPGKGLEWIGVIYASGSTYYASWAKGRFTISKTSTTVDLKITSPTTGDTATYFCVRDTTATYNYFNLWGQGTLVTVSS
VL: AYDMTQTPASVEVAVGGTATIKCQASQSIYNYLAWYQQKPGQPPKLLIYEASTLASGVPSRFKGSGSGTEFTLTISDLECADAATYYCQQSLSPSNVGRRVFGGGTEVVVKR
notes: as for B1

The binders below were run against full-length (FL) human mGluR5 on BA/F3-mGluR5 clone 10C9 cells (human) (UniProt P41594) (assay: flow cytometry, BA/F3-mGluR5 10C9 cells, 10 ug/ml antibody).
B1 gave a mGluR5 (FL) cell binding-fold over background of 40.8 fold. B2 gave a mGluR5 (FL) cell binding-fold over background of 31.1 fold. B3 gave a mGluR5 (FL) cell binding-fold over background of 37.4 fold. B4 showed a mGluR5 (FL) cell binding-fold over background of 40.6 fold. B5 gave a mGluR5 (FL) cell binding-fold over background of 41.3 fold. B6 was tested, and the mGluR5 (FL) cell binding-fold over background was 40 fold. Binder B7 has a mGluR5 (FL) cell binding-fold over background of 40.4 fold. B8 gave a mGluR5 (FL) cell binding-fold over background of 39.6 fold. B9 showed a mGluR5 (FL) cell binding-fold over background of 38.3 fold. B10 gave a mGluR5 (FL) cell binding-fold over background of 26.1 fold. B11 showed a mGluR5 (FL) cell binding-fold over background of 34.2 fold. With B12 the mGluR5 (FL) cell binding-fold over background was 37.9 fold. In the case of B13, the mGluR5 (FL) cell binding-fold over background is reported as 32.1 fold.

The binders below were run against human mGluR5 extracellular domain (human-mGluR5-ECD) (human) (UniProt P41594) (assay: HTRF, soluble ECD).
Sequence of human mGluR5 extracellular domain (human-mGluR5-ECD) (human) (P41594 other isoform, or with tags, fused parts or gaps): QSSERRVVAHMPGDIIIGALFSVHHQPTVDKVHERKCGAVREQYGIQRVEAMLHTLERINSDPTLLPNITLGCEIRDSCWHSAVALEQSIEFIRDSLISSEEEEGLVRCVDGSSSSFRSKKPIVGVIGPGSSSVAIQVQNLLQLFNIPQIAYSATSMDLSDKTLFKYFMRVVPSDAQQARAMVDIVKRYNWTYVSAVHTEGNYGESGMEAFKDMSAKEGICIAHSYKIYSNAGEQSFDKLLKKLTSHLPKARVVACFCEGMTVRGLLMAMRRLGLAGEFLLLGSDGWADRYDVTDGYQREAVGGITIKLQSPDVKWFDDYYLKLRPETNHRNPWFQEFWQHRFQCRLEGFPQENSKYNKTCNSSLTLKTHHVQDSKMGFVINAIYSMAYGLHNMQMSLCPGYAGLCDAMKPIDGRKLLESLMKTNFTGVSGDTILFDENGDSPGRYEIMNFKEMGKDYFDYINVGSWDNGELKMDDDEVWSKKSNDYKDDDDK
B1 was tested, and the EC50 was 0.269 nM. B2 gave an EC50 of 0.536 nM. Binder B3 has an EC50 of 0.183 nM. B4 was tested, and the EC50 was 0.371 nM. B5 showed an EC50 of 0.506 nM. B6 gave an EC50 of 0.439 nM. For B7, the EC50 was 0.312 nM. For B8, the EC50 was 0.491 nM. B9 was tested, and the EC50 was 0.453 nM. Work on B10 yielded an EC50 of 0.364 nM. B11 was tested, and the EC50 was 0.684 nM. B12 gave an EC50 of 0.367 nM. In the case of B13, the EC50 is reported as 0.748 nM.

What follows are binders tested against T1, rat mGluR5 extracellular domain (rat-mGluR5-ECD) (rat, UniProt P31424 21-504) (assay: HTRF, soluble ECD).
T1 construct: ECD construct made 'in a similar fashion' to the human one
T1 sequence (P31424 other isoform, or with tags, fused parts or gaps limits assumed, form in doubt): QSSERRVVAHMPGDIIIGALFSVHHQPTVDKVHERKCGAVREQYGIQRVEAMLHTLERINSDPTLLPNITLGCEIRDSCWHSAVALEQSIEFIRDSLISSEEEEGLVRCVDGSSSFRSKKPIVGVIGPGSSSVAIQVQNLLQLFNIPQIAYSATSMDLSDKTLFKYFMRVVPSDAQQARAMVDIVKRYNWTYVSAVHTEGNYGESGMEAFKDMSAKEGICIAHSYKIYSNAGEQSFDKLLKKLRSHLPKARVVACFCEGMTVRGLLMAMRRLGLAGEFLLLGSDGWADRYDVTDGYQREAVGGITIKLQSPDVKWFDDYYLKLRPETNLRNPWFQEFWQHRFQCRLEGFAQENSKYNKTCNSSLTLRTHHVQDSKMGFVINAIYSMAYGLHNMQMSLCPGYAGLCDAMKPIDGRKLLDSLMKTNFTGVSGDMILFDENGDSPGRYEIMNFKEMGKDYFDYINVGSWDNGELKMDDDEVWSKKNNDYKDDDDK
Description: (§1) Binding of antibodies to mGluR5/mGluRJ measured via Homogeneous Time-Resolved Fluorescence (HTRF). Binding assays were performed using HTRF reagents from CisBio. Ten microliters of an antibody dilution series (highest final concentration of 30 nM) was incubated with 10 μl of mGluR-ECD (10 nM final concentration) in HTRF buffer (50 mM Phosphate buffer pH7, 0.8M KF (potassium fluoride), 0.2% BSA). Twenty microliters of Europium-labeled anti-hu-Fc donor (2 nM final concentration, CisBio Catalog No. 61HFCKLB) and 20 μl of XL665-labeled anti-Flag acceptor (60 nM final concentration, CisBio Catalog No. 61FG2XLB) were added to each well and incubated for 1 hour at room temperature. Alternatively, the antibody dilution series was incubated with 10 μl of biotinylated mGluR-ECD (10 nM final concentration), and 20 μl of Europium-labeled anti-hu-Fc donor (2 nM final concentration) and 20 μl of d2-labeled streptavidin acceptor (60 nM final concentration, CisBio Catalog No. 610SADLB) were added to each well. Fluorescence was measured at 620 and 665 nm with a delay of 300 μsec. Results were expressed as the ratio of signal at 665 nm over 620 nm. EC₅₀ values were calculated for binding of Ab1-Ab23 to human-mGluR5-ECD, of Ab1-Ab21 to rat-mGluR5-ECD, and of Ab1, Ab2 and Ab4-Ab12 to monkey-mGluR5-ECD and to human-mGluR1-ECD (TABLE 1).
Work on B1 yielded an EC50 of 0.497 nM. B2 was tested, and the EC50 was 0.487 nM. B3 showed an EC50 of 0.283 nM. B4 gave an EC50 of 0.308 nM. B5 was tested, and the EC50 was 0.448 nM. With B6 the EC50 was 0.427 nM. In the case of B7, the EC50 is reported as 0.305 nM. B8 gave an EC50 of 0.395 nM. In the case of B9, the EC50 is reported as 0.327 nM. For B11, the EC50 was 0.229 nM.

What follows are binders tested against T2, human mGluR1 extracellular domain (human-mGluR1-ECD) (human, UniProt Q13255 19-592, limits assumed) (assay: HTRF, soluble ECD).
T2 construct: ECD construct made 'in a similar fashion' to the human mGluR5 one; also called hu-mGluR1
T2 sequence (Q13255 other isoform, or with tags, fused parts or gaps limits assumed): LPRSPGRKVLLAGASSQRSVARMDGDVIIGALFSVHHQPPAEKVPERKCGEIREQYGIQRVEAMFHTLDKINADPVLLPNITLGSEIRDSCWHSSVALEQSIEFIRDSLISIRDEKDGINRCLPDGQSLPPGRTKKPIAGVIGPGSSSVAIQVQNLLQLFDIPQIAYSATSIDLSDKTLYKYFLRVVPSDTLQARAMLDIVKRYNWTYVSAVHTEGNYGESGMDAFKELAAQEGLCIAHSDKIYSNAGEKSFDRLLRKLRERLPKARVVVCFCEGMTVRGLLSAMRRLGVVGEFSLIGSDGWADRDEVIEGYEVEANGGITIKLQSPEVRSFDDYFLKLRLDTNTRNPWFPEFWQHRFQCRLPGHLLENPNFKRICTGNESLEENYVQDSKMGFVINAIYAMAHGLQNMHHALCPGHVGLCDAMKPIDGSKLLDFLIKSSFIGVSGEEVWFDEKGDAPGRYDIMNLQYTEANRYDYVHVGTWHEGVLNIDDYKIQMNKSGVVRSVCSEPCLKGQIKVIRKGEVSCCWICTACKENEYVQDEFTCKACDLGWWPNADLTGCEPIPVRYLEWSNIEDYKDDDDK
Description: as §1
B1: no binding. B13: no binding.

These binders were tested against T3, cynomolgus monkey mGluR5 extracellular domain (monkey-mGluR5-ECD) (cynomolgus monkey, UniProt P41594 21-580 (human entry), limits assumed) (assay: HTRF, soluble ECD).
T3 construct: ECD construct made 'in a similar fashion' to the human one; also called cyno-mGluR5
T3 sequence (P41594 other isoform, or with tags, fused parts or gaps limits assumed): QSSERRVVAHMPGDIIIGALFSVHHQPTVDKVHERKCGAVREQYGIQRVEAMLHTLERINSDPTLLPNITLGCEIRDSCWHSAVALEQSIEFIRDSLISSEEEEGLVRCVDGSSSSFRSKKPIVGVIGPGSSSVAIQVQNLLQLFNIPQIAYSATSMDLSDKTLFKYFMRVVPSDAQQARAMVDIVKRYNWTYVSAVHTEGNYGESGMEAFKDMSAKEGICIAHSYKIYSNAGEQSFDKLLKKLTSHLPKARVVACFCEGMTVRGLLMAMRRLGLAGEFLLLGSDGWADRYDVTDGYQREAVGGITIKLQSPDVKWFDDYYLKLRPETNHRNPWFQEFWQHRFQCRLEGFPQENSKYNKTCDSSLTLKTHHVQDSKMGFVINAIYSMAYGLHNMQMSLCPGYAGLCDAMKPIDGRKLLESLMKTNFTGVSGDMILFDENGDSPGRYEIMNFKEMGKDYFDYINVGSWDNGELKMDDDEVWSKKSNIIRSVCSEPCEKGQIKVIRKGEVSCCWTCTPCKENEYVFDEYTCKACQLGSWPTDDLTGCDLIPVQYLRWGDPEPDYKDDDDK
Description: as §1
Work on B1 yielded an EC50 of 0.371 nM. Work on B13 yielded an EC50 of 0.322 nM.

Molecular target: human mGluR5 extracellular domain (human-mGluR5-ECD) (human) (UniProt P41594)
Assay: HTRF, soluble ECD
Remark: another data set of the same source
B1 was tested, and the EC50 was < 2 nM. With B2 the EC50 was < 2 nM. For B3, the EC50 was < 2 nM. In the case of B4, the EC50 is reported as < 2 nM. For B5, the EC50 was < 2 nM. B6 was tested, and the EC50 was < 2 nM. With B7 the EC50 was < 2 nM. With B8 the EC50 was < 2 nM. B9 was tested, and the EC50 was < 2 nM. In the case of B10, the EC50 is reported as < 2 nM. In the case of B11, the EC50 is reported as < 2 nM. B12 was tested, and the EC50 was < 2 nM. In the case of B13, the EC50 is reported as < 2 nM.

These binders were tested against full-length (FL) human mGluR5 on BA/F3-mGluR5 clone 10C9 cells (human) (UniProt P41594) (assay: cell-based or functional assay).
For B1, the pERK Assay Inhibition IC50-nM was 0.14 nM. Work on B2 yielded a pERK Assay Inhibition IC50-nM of 3.91 nM. In the case of B3, the pERK Assay Inhibition IC50-nM is reported as 0.22 nM. With B4 the pERK Assay Inhibition IC50-nM was 0.15 nM. In the case of B5, the pERK Assay Inhibition IC50-nM is reported as 0.18 nM. B6 showed a pERK Assay Inhibition IC50-nM of 0.17 nM. Work on B7 yielded a pERK Assay Inhibition IC50-nM of 0.15 nM. In the case of B8, the pERK Assay Inhibition IC50-nM is reported as 0.15 nM. For B9, the pERK Assay Inhibition IC50-nM was 1.07 nM. B10 was tested, and the pERK Assay Inhibition IC50-nM was 2.36 nM. B11 showed a pERK Assay Inhibition IC50-nM of 1.41 nM. For B12, the pERK Assay Inhibition IC50-nM was 0.14 nM. With B13 the pERK Assay Inhibition IC50-nM was 2.29 nM.
